The results in this text go back to publication PMC7457537, “Influence of the amino-terminal sequence on the structure and function of HIV integrase” (Retrovirology, 2020).

Details in all cases: both partners purified
The target in test [1] is T1, HIV-1 integrase with native N-terminal phenylalanine (IN 1F), full-length, wild type (HIV-1 (NL4-3)).
T1 chain: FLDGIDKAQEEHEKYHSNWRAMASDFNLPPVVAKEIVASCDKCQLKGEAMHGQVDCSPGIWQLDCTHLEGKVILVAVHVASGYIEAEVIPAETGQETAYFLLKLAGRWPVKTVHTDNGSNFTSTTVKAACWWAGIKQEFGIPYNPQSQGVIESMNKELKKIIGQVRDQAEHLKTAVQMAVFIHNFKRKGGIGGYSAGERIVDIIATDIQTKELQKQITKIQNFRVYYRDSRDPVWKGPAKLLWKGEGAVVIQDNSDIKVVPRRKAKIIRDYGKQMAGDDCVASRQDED
Put plainly: AUC; sedimentation equilibrium, 4 °C, 20 mM HEPES-NaOH pH 7.5, 1 M NaCl, 7 mM CHAPS, 10 µM ZnOAc2, 10 µM β-mercaptoethanol; global fit at 16, 20, 24 krpm (SEDPHAT); dimer to monomers.

Test [2] concerns the target T1, HIV-1 integrase with native N-terminal …. In words: AUC; sedimentation equilibrium, 4 °C, same data and buffer as the monomer-dimer fit; attempted fit of a dimer-tetramer equilibrium: tetramer to dimers.
Test [3] shares this target. In words: SEC-MALS; Superdex 200 10/300, 25 °C, 20 mM HEPES-NaOH pH 7.5, 500 mM-1 M NaCl, 7 mM CHAPS, 10 µM ZnOAc2, 10 µM β-mercaptoethanol; eluted concentrations ~8-10 µM (IN 1F, IN MF); self-association.

Bounds are passed on as bounds.

A word on the Kd: it is the free concentration of one partner at which half of the binding sites on the other are occupied at equilibrium, for simple one-to-one binding. A lower Kd goes with a tighter complex. What is called stoichiometry N is the number of molecules, sites or subunits per partner or assembly.

B1: HIV-1 integrase with native N-terminal phenylalanine (IN 1F), full-length, wild type (enzyme)
chain: FLDGIDKAQEEHEKYHSNWRAMASDFNLPPVVAKEIVASCDKCQLKGEAMHGQVDCSPGIWQLDCTHLEGKVILVAVHVASGYIEAEVIPAETGQETAYFLLKLAGRWPVKTVHTDNGSNFTSTTVKAACWWAGIKQEFGIPYNPQSQGVIESMNKELKKIIGQVRDQAEHLKTAVQMAVFIHNFKRKGGIGGYSAGERIVDIIATDIQTKELQKQITKIQNFRVYYRDSRDPVWKGPAKLLWKGEGAVVIQDNSDIKVVPRRKAKIIRDYGKQMAGDDCVASRQDED
modifications: Zn2+ bound in the NTD (H12, H16, C40, C43); native N-terminal Phe1; monomer-dimer equilibrium. Limits: the paper gives F1 as the start and full length; the integrase chain follows RT (ends at 1147) …
On to B1, for which the Kd in test [1] was 59.8 µM; in test [2] it was over 1000 µM. The “stoichiometry N” value in test [3] came out at 2.
